Test results: article PMC5472220 (Nature structural & molecular biology, 2017)

Target: the molecule itself
Assay: cryo-EM structure

B1: E. coli CTP synthase (ecCTPS), wild type (enzyme)
chain: MTTNYIFVTGGVVSSLGKGIAAASLAAILEARGLNVTIMKLDPYINVDPGTMSPIQHGEVFVTEDGAETDLDLGHYERFIRTKMSRRNNFTTGRIYSDVLRKERRGDYLGATVQVIPHITNAIKERVLEGGEGHDVVLVEIGGTVGDIESLPFLEAIRQMAVEIGREHTLFMHLTLVPYMAASGEVKTKPTQHSVKELLSIGIQPDILICRSDRAVPANERAKIALFCNVPEKAVISLKDVDSIYKIPGLLKSQGLDDYICKRFSLNCPEANLSEWEQVIFEEANPVSEVTIGMVGKYIELPDAYKSVIEALKHGGLKNRVSVNIKLIDSQDVETRGVEILKGLDAILVPGGFGYRGVEGMITTARFARENNIPYLGICLGMQVALIDYARHVANMENANSTEFVPDCKYPVVALITEWRDENGNVEVRSEKSDLGGTMRLGAQQCQLVDDSLVRQLYNAPTIVERHRHRYEVNNMLLKQIEDAGLRVAGRSGDDQLVEIIEVPNHPWFVACQFHPEFTSTPRDGHPLFAGFVKAASEFQKRQAK
stoichiometry N: 4
